# Patent publication US20240343803A1 (SHANDONG SIMCERE BIOPHARMACEUTICAL, published 2024)
# Positions count from the first letter of the chain named.
# T1: human PVRIG-mFc protein (Acro, PVG-H5253) (human, UniProt Q6DKI7 41-171, limits assumed)
# T1 construct: extracellular domain; Bought protein; also called PVRIG-ECD-mFc; not shown: mouse Fc tag of the bought protein
# T1 sequence (looked up): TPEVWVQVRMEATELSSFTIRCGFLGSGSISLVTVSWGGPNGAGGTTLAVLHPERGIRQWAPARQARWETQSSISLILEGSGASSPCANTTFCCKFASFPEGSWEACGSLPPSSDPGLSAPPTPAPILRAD
# T2: human PVRIG-his (AcroBiosystems, Cat NO. PVG-H52H4) (human, UniProt Q6DKI7 41-171, limits assumed)
# T2 construct: also called human PVRIG protein
# T2 sequence (looked up): T1 sequence (looked up)
# B1: PVRIG-A118-H3 (Fc fusion)
# chain: EVQLVESGGGLVQPGGSLRLSCAASETYFDLYVMGWYRQAPGKDRELVATITYTGSIKYVDSVKGRFTISRGDAKNSLYLQMNSLRAEDTAVYYCNADPSGLGRKVYWGQGTMVTVSS
# notes: VHH-human IgG1 Fc format is stated for the parental VHH antibodies; not restated for the humanized variants; also called A118.VH3; not shown: human IgG1 hinge-CH2-CH3 (Fc)
# B2: PVRIG-A118-H1 (Fc fusion)
# chain: B1 chain with K58Y, G72D, D73N
# notes: VHH-human IgG1 Fc format is stated for the parental VHH antibodies; not restated for the humanized variants; also called A118.VH1; not shown: human IgG1 hinge-CH2-CH3 (Fc)
# B3: PVRIG-A118 (Fc fusion)
# chain: QVQLVESGGGLVQAGGSLRLSCAASETYFDLYVMGWYRQAPGKDRELVATITYTGSIKIVDSVKDRFTISRGDAKNTVSLQMSSLKPEDTAVYFCNADPSGLGRKVYWGQGTQVTVSS
# notes: Alpaca VHH expressed as VHH-hinge-CH2-CH3 of human IgG1; not shown: human IgG1 hinge-CH2-CH3 (Fc)
# B4: PVRIG-A118-H2 (Fc fusion)
# chain: B1 chain with G72D, D73N
# notes: VHH-human IgG1 Fc format is stated for the parental VHH antibodies; not restated for the humanized variants; also called A118.VH2; not shown: human IgG1 hinge-CH2-CH3 (Fc)
# B5: PVRIG-A118-H7 (Fc fusion)
# chain: B1 chain with Y94F
# notes: VHH-human IgG1 Fc format is stated for the parental VHH antibodies; not restated for the humanized variants; also called A118.VH7; not shown: human IgG1 hinge-CH2-CH3 (Fc)
# B6: PVRIG-A118-H5 (Fc fusion)
# chain: B1 chain with L78V
# notes: VHH-human IgG1 Fc format is stated for the parental VHH antibodies; not restated for the humanized variants; also called A118.VH5; not shown: human IgG1 hinge-CH2-CH3 (Fc)
# B7: PVRIG-A118-H6 (Fc fusion)
# chain: B1 chain with Y59I
# notes: VHH-human IgG1 Fc format is stated for the parental VHH antibodies; not restated for the humanized variants; also called A118.VH6; not shown: human IgG1 hinge-CH2-CH3 (Fc)
# B8: PVRIG-A118-H4 (Fc fusion)
# chain: B1 chain with Y79S
# notes: VHH-human IgG1 Fc format is stated for the parental VHH antibodies; not restated for the humanized variants; also called A118.VH4; not shown: human IgG1 hinge-CH2-CH3 (Fc)
# B9: PVRIG-A50-H1 (Fc fusion)
# chain: EVQLVESGGGLVQPGGSLRLSCAASGFTFSYYDMSWVRQAPGKGLEWVSTINSNGGRTSYVDSVKGRFTISRDNSKNTLYLQMNSLRAEDTAVYYCVEGDPHNFGLENLSLRDFGSWGQGTMVTVSS
# notes: VHH-human IgG1 Fc format is stated for the parental VHH antibodies; not restated for the humanized variants; also called A50.VH1; not shown: human IgG1 hinge-CH2-CH3 (Fc)
# B10: PVRIG-A50-H1c (Fc fusion)
# chain: B9 chain with N54D, S110A
# notes: VHH-human IgG1 Fc format is stated for the parental VHH antibodies; not restated for the humanized variants; also called A50.VH1c; not shown: human IgG1 hinge-CH2-CH3 (Fc)
# B11: PVRIG-A50-H1e (Fc fusion)
# chain: B9 chain with G55A, N108S
# notes: VHH-human IgG1 Fc format is stated for the parental VHH antibodies; not restated for the humanized variants; also called VH1e; not shown: human IgG1 hinge-CH2-CH3 (Fc)
# B12: PVRIG-A50-H1a (Fc fusion)
# chain: B9 chain with N54D
# notes: VHH-human IgG1 Fc format is stated for the parental VHH antibodies; not restated for the humanized variants; also called A50.VH1a; not shown: human IgG1 hinge-CH2-CH3 (Fc)
# B13: PVRIG-A50 (Fc fusion)
# chain: B9 chain with S75T, R87K, A88P, M122Q
# notes: Alpaca VHH expressed as VHH-hinge-CH2-CH3 of human IgG1 (heavy-chain antibody); also called PVRIG-50; not shown: human IgG1 hinge-CH2-CH3 (Fc)
# B14: PVRIG-A50-H1d (Fc fusion)
# chain: B9 chain with N108S
# notes: VHH-human IgG1 Fc format is stated for the parental VHH antibodies; not restated for the humanized variants; also called A50.VH1d; not shown: human IgG1 hinge-CH2-CH3 (Fc)
# B15: PVRIG-A50-H2a (Fc fusion)
# chain: B9 chain with G55A, S75T, N108S
# notes: VHH-human IgG1 Fc format is stated for the parental VHH antibodies; not restated for the humanized variants; also called A50.VH2a; not shown: human IgG1 hinge-CH2-CH3 (Fc)
# B16: PVRIG-A105-H2 (Fc fusion)
# chain: EVQLVESGGGLVQPGGSLRLSCAASGRTFDRHTMTWFRQAPGKEREFVATASRIPGDTYYVDSVKGRFTISRDNAKNSLYLQMNSLRAEDTAVYYCAATSAYCSEVDCYEKGSWYDNWGQGTMVTVSS
# notes: VHH-human IgG1 Fc format is stated for the parental VHH antibodies; not restated for the humanized variants; also called A105 VH2; not shown: human IgG1 hinge-CH2-CH3 (Fc)
# B17: PVRIG-A105-H3 (Fc fusion)
# chain: B16 chain with L79V
# notes: VHH-human IgG1 Fc format is stated for the parental VHH antibodies; not restated for the humanized variants; also called A105.VH3; not shown: human IgG1 hinge-CH2-CH3 (Fc)
# B18: PVRIG-A105-H4 (Fc fusion)
# chain: B16 chain with V61S, D62H
# notes: VHH-human IgG1 Fc format is stated for the parental VHH antibodies; not restated for the humanized variants; also called A105.VH4; not shown: human IgG1 hinge-CH2-CH3 (Fc)
# B19: PVRIG-A105-H5 (Fc fusion)
# chain: B16 chain with T122I, M123Q
# notes: VHH-human IgG1 Fc format is stated for the parental VHH antibodies; not restated for the humanized variants; also called A105.VH5; not shown: human IgG1 hinge-CH2-CH3 (Fc)
# B20: PVRIG-A105 (Fc fusion)
# chain: EVQLVESGGGLVQAGGSLRLSCAASGRTFDRHTMTWFRQAPGKEREFVATASRIPGDTYYSHSVKGRFTISRDNAKNTVYLQLNNLKPEDTAVYYCAATSAYCSEVDCYEKGSWYDNWGQGIQVTVSS
# notes: as for B3
# B21: PVRIG-A105-H3a (Fc fusion)
# chain: B16 chain with L79V, C103S, C108S
# notes: VHH-human IgG1 Fc format is stated for the parental VHH antibodies; not restated for the humanized variants; also called A105.VH3a; not shown: human IgG1 hinge-CH2-CH3 (Fc)
# B22: SRF813-hIgG1 (antibody, V domains shown)
# VH: QVQLVQSGAEVKKPGSSVKVSCKASGGTFSSAAISWVRQAPGQGLEWMGNIIPIVGIANYAQKFQGRVTITADESTSTAYMELSSLRSEDTAVYYCARDTGRGYTRHFWFDPWGQGTLVTVSS
# VL: DIQMTQSPSSLSASVGDRVTITCRASQSISSYLNWYQQKPGKAPKLLIYAASSLQSGVPSRFSGSGSGTDFTLTISSLQPEDFATYYCQQSDILYTFGGGTKVEIK
# notes: positive control; human IgG1 format
# B23: COM701-hIgG1 (antibody, V domains shown)
# VH: QVQLVQSGAEVKKPGASVKVSCKASGYTFTDYNINWVRQAPGQGLEWMGYIYPYIGGSGYAQKFQGRVTMTRDTSTSTVYMELSSLRSEDTAVYYCAREDKTARNAMDYWGQGTLVTVSS
# VL: DIQMTQSPSSLSASVGDRVTITCRVSENIYSNLAWYQQKPGKAPKLLIYEATNLAEGVPSRFSGSGSGTDFTLTISSLQPEDFATYYCQHFWGTPYTFGQGTKLEIK
# notes: as for B22
# Target: T1, human PVRIG-mFc protein (Acro, …)
# Assay: FACS blocking of PVRIG-mFc binding to CHO-K1-CD112 cells; competitor CD112
# Outline: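 Zombie violet-stained CHO-K1-CD112 cells were added for 30 min at 4° C, then PE goat anti-mouse IgG Fc (1:250) was applied and mean fluorescence intensity read on a BD Canto II. Curves were fitted with four-parameter logistic models in GraphPad Prism 9. IC50 and curve AUC were reported as percentages of the reference antibody values.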
% AUC to COM701-hIgG4 [%],% AUC to SO35-hIgG1 [%],% AUC to parental Ab [%],% IC50 to COM701-hIgG4 [%],% IC50 to SO35-hIgG1 [%],% IC50 to parental Ab [%],Binder
127,65.8,107,146,98.8,104,B1
120,62.4,101,141,95.4,100,B2
119,61.7,100,141,95.3,100,B3
142,73.7,120,161,109,115,B4
124,64.3,104,143,97.1,102,B5
127,66.1,107,144,97.4,102,B6
119,61.7,100,145,97.8,103,B7
116,60.4,97.9,141,95.4,100,B8
115,67.8,94,101,78,86.1,B9
132,77.7,108,122,94.7,105,B10
126,74.1,103,130,101,111,B11
125,73.5,102,120,93,103,B12
122,72.1,100,117,90.6,100,B13
121,71.1,98.7,115,89.1,98.4,B14
112,66,91.6,118,91.7,101,B15
,,,109,92.3,104,B16
109,62.9,95.8,109,91.9,104,B17
112,64.6,98.4,110,93.2,105,B18
,,,110,93.4,106,B19
114,65.6,100,104,88.3,100,B20
3530,2040,3100,3060,2590,2930,B21

# Target: T2, human PVRIG-his (AcroBiosystems, Cat …)
# Assay: SPR (BIAcore), antibody captured on Protein A chip, human PVRIG-His analyte
# Protocol: Biacore was used to detect the specific binding between anti-PVRIG antibody and human PVRIG protein. Protein A chip was used in the BIAcore assay. The time required for the chip to capture the diluted antibody and saturate the binding antigen to reach Rₘₐₓ (Maximum binding capacity, 50 RU) was measured by manual run. […] The affinity of antibody for antigen was measured by multi-cycle kinetics. In each cycle, the antibodies were injected prior to the injection of gradient concentraions of PVRIG proteins allowing the occurrence of antibody-antigen association and dissociation After each cycle, the Protein A chip was regenerated by Glycine, pH 1.5 (to remove the proteins on the chip). The affinity of antibody for antigen was calculated by BIAcore T200 analysis software.
Kd [pM],koff [s⁻¹],kon [M⁻¹ s⁻¹],Binder
278,0.000317,1.14e+06,B22
319,0.000651,2.04e+06,B23
